In publication PMC10397247:

Tests used:
[1] = target: T1, 4H335-AA; test: two-hybrid library CCmax; conditions: mean of both orientations;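 note: natural log of median RNA to DNA barcode read ratio; higher means stronger binding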
T1 chain: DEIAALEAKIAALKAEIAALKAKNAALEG

[2] = target: T2, 4H678-AA; test: two-hybrid library CCmax; conditions: mean of both orientations;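 note: natural log of median RNA to DNA barcode read ratio; higher means stronger binding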
T2 chain: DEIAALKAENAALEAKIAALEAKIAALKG

[3] = target: T3, 4H881-AA; test: two-hybrid library CCmax; conditions: mean of both orientations;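 note: natural log of median RNA to DNA barcode read ratio; higher means stronger binding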
T3 chain: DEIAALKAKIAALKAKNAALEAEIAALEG

[4] = target: T4, 4H2729-AA; test: two-hybrid library CCmax; conditions: mean of both orientations;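 note: natural log of median RNA to DNA barcode read ratio; higher means stronger binding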
T4 chain: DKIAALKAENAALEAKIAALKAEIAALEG

[5] = target: T5, 4H717-AA; test: two-hybrid library CCmax; conditions: mean of both orientations;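 note: natural log of median RNA to DNA barcode read ratio; higher means stronger binding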
T5 chain: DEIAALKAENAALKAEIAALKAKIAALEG

[6] = target: T6, 4H2617-AA; test: two-hybrid library CCmax; conditions: mean of both orientations;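 note: natural log of median RNA to DNA barcode read ratio; higher means stronger binding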
T6 chain: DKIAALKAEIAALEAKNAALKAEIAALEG

[7] = target: T7, 4H794-AA; test: two-hybrid library CCmax; conditions: mean of both orientations
T7 chain: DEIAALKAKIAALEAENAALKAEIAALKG

[8] = target: T8, 4H342-AA; test: two-hybrid library CCmax; conditions: mean of both orientations
T8 chain: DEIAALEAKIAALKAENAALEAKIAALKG

[9] = target: T9, 4H454-AA; test: two-hybrid library CCmax; conditions: mean of both orientations
T9 chain: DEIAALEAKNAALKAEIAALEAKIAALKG

[10] = target: T10, 4H3606-AA; test: two-hybrid library CCmax; conditions: mean of both orientations
T10 chain: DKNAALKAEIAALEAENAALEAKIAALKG

[11] = target: T11, 4H2949-AA; test: two-hybrid library CCmax; conditions: mean of both orientations
T11 chain: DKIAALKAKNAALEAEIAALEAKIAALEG

[12] = target: T12, 4H605-AA; test: two-hybrid library CCmax; conditions: mean of both orientations
T12 chain: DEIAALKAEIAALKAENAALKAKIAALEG

[13] = target: T13, 4H2354-AA; test: two-hybrid library CCmax
T13 chain: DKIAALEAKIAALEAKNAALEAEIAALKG

[14] = target: T14, 4H2505-AA; test: two-hybrid library CCmax; conditions: mean of both orientations
T14 chain: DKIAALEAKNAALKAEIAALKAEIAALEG

[15] = target: T15, 4H2393-AA; test: two-hybrid library CCmax; conditions: mean of both orientations
T15 chain: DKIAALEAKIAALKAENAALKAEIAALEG

[16] = target: T16, 4H2642-AA; test: two-hybrid library CCmax; conditions: mean of both orientations
T16 chain: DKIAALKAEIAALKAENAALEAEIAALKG

[17] = target: T17, 4H48-AA; test: two-hybrid library CCmax; conditions: mean of both orientations
T17 chain: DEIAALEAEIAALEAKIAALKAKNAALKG

[18] = target: T18, 4H3427-AA; test: two-hybrid library CCmax; conditions: mean of both orientations
T18 chain: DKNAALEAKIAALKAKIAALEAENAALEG

[19] = target: T19, 4H906-AA; test: two-hybrid library CCmax; conditions: mean of both orientations
T19 chain: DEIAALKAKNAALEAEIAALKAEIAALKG

[20] = target: T20, 4H2466-AA; test: two-hybrid library CCmax
T20 chain: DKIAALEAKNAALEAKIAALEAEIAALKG

[21] = target: T21, 4H317-AA; test: two-hybrid library CCmax; conditions: mean of both orientations
T21 chain: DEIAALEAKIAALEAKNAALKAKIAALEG

[22] = target: T22, 4H2837-AA; test: two-hybrid library CCmax; conditions: mean of both orientations
T22 chain: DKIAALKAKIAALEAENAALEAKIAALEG

[23] = target: T23, 4H429-AA; test: two-hybrid library CCmax; conditions: mean of both orientations
T23 chain: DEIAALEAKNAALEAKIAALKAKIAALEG

[24] = target: T24, 4H3844-AA; test: two-hybrid library CCmax; conditions: mean of both orientations
T24 chain: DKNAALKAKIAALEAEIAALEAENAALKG

[25] = target: T25, 4H3112-AA; test: two-hybrid library CCmax; conditions: mean of both orientations
T25 chain: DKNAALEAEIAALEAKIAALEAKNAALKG

[26] = target: T26, 4H3921-AA; test: two-hybrid library CCmax; conditions: mean of both orientations
T26 chain: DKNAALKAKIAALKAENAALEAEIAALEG

[27] = target: T27, 4H2883-AA; test: two-hybrid library CCmax; conditions: mean of both orientations
T27 chain: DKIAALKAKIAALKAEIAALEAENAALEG

[28] = target: T28, 4H2944-AA; test: two-hybrid library CCmax; conditions: mean of both orientations
T28 chain: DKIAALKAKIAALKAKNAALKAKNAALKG

[29] = target: T29, 4H566-AA; test: two-hybrid library CCmax; conditions: mean of both orientations
T29 chain: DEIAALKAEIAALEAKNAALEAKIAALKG

[30] = target: T30, 4H3343-AA; test: two-hybrid library CCmax; conditions: mean of both orientations
T30 chain: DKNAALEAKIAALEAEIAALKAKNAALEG

[31] = target: T31, 4H3655-AA; test: two-hybrid library CCmax; conditions: mean of both orientations
T31 chain: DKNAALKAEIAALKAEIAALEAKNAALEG

[32] = target: T32, 4H780-AA; test: two-hybrid library CCmax; conditions: mean of both orientations
T32 chain: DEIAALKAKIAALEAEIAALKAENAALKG

[33] = target: T33, 4H3627-AA; test: two-hybrid library CCmax; conditions: mean of both orientations
T33 chain: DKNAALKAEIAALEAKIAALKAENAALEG

[34] = target: T34, 4H993-AA; test: two-hybrid library CCmax; conditions: mean of both orientations
T34 chain: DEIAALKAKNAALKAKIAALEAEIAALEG

[35] = target: T35, 4H2575-AA; test: two-hybrid library CCmax; conditions: mean of both orientations
T35 chain: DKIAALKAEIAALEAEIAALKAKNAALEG

[36] = target: T36, 4H2754-AA; test: two-hybrid library CCmax; conditions: mean of both orientations
T36 chain: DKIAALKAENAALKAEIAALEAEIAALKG

[37] = target: T37, O9-bN; test: two-hybrid library CCNG1; conditions: mean of both orientations
T37 chain: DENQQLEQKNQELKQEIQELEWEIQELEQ

With DKIAALEAKIAALEAKNAALEAEIAALKG [4H2354-AA] the interaction score [1] was -1.35, the interaction score [2] was -1.46 and the interaction score [3] was -0.238. For the same binder, the interaction score [4] was -1.03, the interaction score [5] was -1.79 and the interaction score [6] was 0.763. The interaction score [7] was -1.09, the interaction score [8] was 1.11 and the interaction score [9] was -0.846. The interaction score [10] was -0.995, the interaction score [11] was -1.56 and the interaction score [12] was -1.45. The interaction score [13] was 2.28, the interaction score [14] was 0.629 and the interaction score [15] was -0.967. It also gave an interaction score [16] of -0.757, an interaction score [17] of -1.39 and an interaction score [18] of -1.67. For the same binder, the interaction score [19] was -1.21, the interaction score [20] was -1.18 and the interaction score [21] was 0.391. It also gave an interaction score [22] of -0.0493, an interaction score [23] of -1.58 and an interaction score [24] of -1.42. For the same binder, the interaction score [25] was -1.26, the interaction score [26] was -2.02 and the interaction score [27] was -1.31. It also gave an interaction score [28] of -1.22, an interaction score [29] of 0.225 and an interaction score [30] of -1.47. It also gave an interaction score [31] of -1.28, an interaction score [32] of -1.35 and an interaction score [33] of -1.59. It also gave an interaction score [34] of -1.38, an interaction score [35] of -1 and an interaction score [36] of -1.42.

DENQQLEQKNQELKQEIQELEWEIQELEQ [O9-bN] was tested, and the interaction score [37] was -1.9.
